Among the data in PMC12700175 are stoichiometry N values, retold here.

The target in the assay is Pyruvate kinase M2 (PKM2) of mouse retina (mouse (endogenous in retina)) (UniProt P52480). As to the kind of experiment: cross-linking.

One may read the stoichiometry N as the number of molecules, sites or subunits per partner or assembly.

As to “Pyruvate kinase M2 (PKM2) of mouse retina (from UniProt P52480 1-531) (enzyme)”, the stoichiometry N was determined as 4.
